Laboratory results reported in the DeepSol protein solubility set.

Assay: soluble on expression in E. coli; label from the status in PepcDB or PDB records

Row | Sequence | soluble on expression in E. coli
1 | FISSRANVDDLKSIENKSDFVATENMPNYVKGAFISMEDERFYKHHGFDIKGTTRALFSTISDRDVQGGSTITQQVVKNYYYDNERSFTRKIKELFVARKVEKQYSKNQILSFYMNNIYYGDNQYTVEGAANHYFGVTVDKNNSNMSQISVLQSAILASKVNAPSVYD | not soluble
2 | MDAWKEITKTTENDGVSTCSLSSIAFDPYSELVWTGHKNGQIKSSFGPSLTSYTQFIGHEGPVHQVLPQERGVFSLSSKSLRLSNRKGTIRWRYHSVPCVQRSMIILYSCFLCSKHAVLISRDSDCIDYRAMFYQSRNNPEVVIGGYHQKLTVVNAERGISIHKDKNVSDIFIMRRNRLLCCGSTNGEIILRDPNSFQPVNKVVAHTGTISDIDTSGNLLLSCGYSLRHGTYMLDPFVKVWDLRNLSSLVPIPFPAGPTIIRMHPKLSTTAVVCSCSGQFHIVDTGNPLDAKLMQIPLTSYLTGMDIASTGDAMVFTDVEDNIHLWSPLENPSFSDLKLPIQLPNTSTETVQLENNDPLNSIGLPYYKDELLSSWSKYLIFDVGKPILDSNLLIAKQISENSHPVPQEIKSFHRNQIIEVPWLNRKLISEGATPKFHSERQKDIMSGNDIEGSASYFEEIEDTISGPDSIPKFYQRPVIKYSKFGIEDFDFGFYNKTKYAGLETDITNSYCNSVLQLLSYVPSFSKAAISHSLGPCDLMECLLCELGFLFAMLKESTGRNCQATNFLRAFSNSSFAQSLGIVFDDYSDGTFPDSFVIQKFTKFMLTEISRIADYEDKKDGTSFPVSFLLKSFCIPEMQTYRCGICGITSQKIKSSLYIIDLHYPSQQLESILSFEWLFKMSLDRRVDLPPGWCEYCLAHQPFLLRSFIRSLPDCLFINTQVKHHEHWKLWARKNWLPKKLHLRRVNDTMQCVSQKISNLDKDQQSLSVYVLRGIIYEIRQNGEEPHFVSTIRVSDNTSSDNPDDNRWYIFNDFLVKEVTEEEALTVHGPWKIPIIVYYEKLDTKIPQWDEVSDYTLLYQPYSLNKNPPINKIQPLTTDEMLYPKMLVGIDSEFVALQQEETEVRSDGTKSTIKPSKLSLARVSVLRGEGPNKGLPFIDDYVATDDKVTDYLTEYSGIHPGDLDPDRSPYNVVPLKVAYKKLRLLVNAGCIFVGHGLQKDFRIINLLVPPEQVVDTVDLFFLSSRQRKLSLKFLAWYLLDEEIQLTEHDSIEDALTALKLYDCYDKLKSQGKLEETLDNIYEVGRRFKFRPPSVASMSLEDRNSYGDESVISNQTN | soluble
3 | MSLGKKLKIFFIDDDIALGHICTRIMQEEGYEVLYQTSLNGAKACIVETHPDMIVLDVEIGNKNGIEAVPELKAIAPNTPILFISSHTNSQLVVQALSAGAVAYLKKPLEIDELIAYIKRYAISHPYQIKIGSLLLDTDTQLLCTKELRVIKQLSEAEYKLLKLLVAYKEQLVERRQIEEELWGKVNGNEQGINNLISKLRKYLSIDPTIELVTIPRNGYKLSVNLSEGHHHHHH | soluble
4 | MDVIKISPRGYCYGVVDAMVIAKNASLDKSLPRPIYILGMIVHNKHVTDAFEEEGILTLDGSNRLDILKQVDKGTVIFTAHGVSPEVRRIAEEKGLVAIDATCPDVTKTHNLILEMKEKGYHVIYIGKKGHPEPEGAVGVAPEIVHLVETEEDVKNLDIQSEKLIVTNQTTMSQWDVHDIMELVKEKYPHVEYHQEICLATQVRQEAVSEQAKKADLTIVVGDPKSNNSNRLAQVSEEIAGTKAYRIGDLSELKLEWLKGVNTVAVTAGASTPTPITKEVIRFLEQFDHEDPSTWTTEHNIPLKKILPKVKAKN | not soluble
5 | MQIKDEILSLLKRGKNLLAFSYGSDSSVLFYLLMQEKIDFDLVMINYKTRKNSDLEELKAKELALKFHKKIFIKHAPKFQSNFEKKARDFRYDFFEKICLEQGYDHLILAHHLNDQFEWFLMQLSRGAGLAEILGMQECEKRSNYTLLRPLLFISKDEISSFLKEKDIFYFHDES | not soluble
6 | MSIAVGMIETLGFPAVVEAADSMVKAARVTLVGYEKIGSGRVTVIVRGDVSEVQASVTAGIENIRRVNGGEVLSNHIIARPHENLEYVLPIRYTEAVEQFREIVNPSIIRRAAALEHHHHHH | soluble
7 | MNVRVLVVEDERDLADLITEALKKEMFTVDVCYDGEEGMYMALNEPFDVVILDIMLPVHDGWEILKSMRESGVNTPVLMLTALSDVEYRVKGLNMGADDYLPKPFDLRELIARVRALIRRKSESKSTKLVCGDLILDTATKKAYRGSKEIDLTKKEYQILEYLVMNKNRVVTKEELQEHLWSFDDEVFSDVLRSHIKNLRKKVDKGFKKKIIHTVRGIGYVARDE | soluble
8 | MAHHHHHHMTSQPHVTMSKNTGSVTEQHKRMSHTTGDNNEEEKHILAGRYKTKLCKNYVARGECPYDVRCMFAHGEDELRTSDDNIRDGLVTEEAIKDFQRQQNQAKRRAAFAAAREHNNHDHSHSHNHSHSHNHTVRPVPHGNVYEMEENVESNEVYRNRNRHHNLRLHPPQEPVSIPQPQQQQQQEQQFQLQSVVAQYYTHNPYVFDLIPAAARLFPVYQEVVEEGCWYEEEPVPAQEDYYFPSSDMMMPLVPSLVTQQYLPYPHQQCSKQLETVASASTYSCEEAMYGHSESSASSAYRSVARCTAAELPSNSDIPAMVMEP | not soluble
9 | PKTLYDKIWDAHLAHEAEDGTCLLYIDRHLVHEVTSPQAFEGLRMAGRKVRAPEKTIAVPDHNVPTTEGREDPAQMTEESRIQVQALDKNAREFGVHYYPVDDIRQGIVHIVGPEQGWTLPGMTVVCGDSHTATHGAFGALAHGIGTSEVEHVLATQTLIQKKSKN | not soluble
10 | GSMSFLGFGGGQPQLSSQQKIQAAEAELDLVTDMFNKLVNNCYKKCINTSYSEGELNKNESSCLDRCVAKYFETNVQVGENMQKMGQSFNAAGKF | soluble
11 | MFQVQKELASHEAVVVALFEEEKTSSFVQELDKAFEGQLQVLLEEKELSTKKKAISKVHSLGKTDVKRYYFVGLGKKESYTTETLRSALGKTFKTLQAAKVQDAAILLDSFVTEKLDAIDVAHIAAEVQGLGTYELQTYKSDKKDRVELEKFTAITAEDAQEIEAALTVGYVHGRATNSARTLVNMPPNVLTATKLAEYAVELAEKYDMDYKVLEKEEMEELGMGALLAVNQGSVEPPKMIALIYKGKEEWTDVIGFVGKGITYDTGGYSLKPREGMVGMKGDMGGAAAVLGAMEIIGELRPEQNVIAVIPSTDNVVSGTAFKPDDVITSMSGKTIEVLNTDAEGRLALADGITYAKKLGANYLIDVATLTGGVIVALGNHTTGAMTNNEELFEQVLEASMETDESIWQLPIFDRDKERVRNSKFADLNNSPGREGHAVMAGTFIGEFAEDTPWVHLDIAGTSESSGAHDLGPAGATGAMVRTLATLVERFGEE | not soluble
12 | IIAWLGPQLRELTPVDTNKDPKTRLQEFLQSRGCDLPRYEVVDIQGEPHCRTFFVDCEVALLSDKTHGHGGSRRIAEQVAAAAALVALGVENGHD | not soluble
13 | KTIAIIGAGIVGVSTAIWLQRDGHQVVLIDRAGPAEGTSYGNGGVLASCSIVPVTTPGLIAKAPRMLFSPNEPLFLRWGYLPRLAPWLLRYLRRANARDATQTAAAMAPIVGDSLADHLALAQGTGAEKWVVPSDYLFIYNDRAHFQGDAFGWNLRRQNGFVWDEMEAEEFRGYDPIFSSDLRFAVRLKDHGRITDPGQYVKDLAAHVVASGGQLIQADVEDIARENGRVTGVRAGGRTIPCDAAVIATGVWSGPLARKLGLEVPLEAERGYHIEFWNPNFMPKSPVMVAARKFVATPMEGRLRLAGVVEFGGLDAGPSRAPIELLKRSAAAVFPGLKADEVTEWLGHRPAPADSIPVIGELPHLKGAFTGFGHHHVGLTGGPKTGRILAQLIAGRQPNIDL | not soluble
14 | MGHHHHHHSHMAGGGAGDPGLGAAAAPAPETREHLFKVLVIGELGVGKTSIIKRYVHQLFSQHYRATIGVDFALKVLNWDSRTLVRLQLWDIAGQERFGNMTRVYYKEAVGAFVVFDISRSSTFEAVLKWKSDLDSKVHLPNGSPIPAVLLANKCDQNKDSSQSPSQVDQFCKEHGFAGWFETSAKDNINIEEAARFLVEKILVNHQSFPNEENDVDKIKLDQETLRAENKSQCC | soluble
15 | MGSDKIHHHHHHMDAPALPARWKVSAPELIAETFSSRIWKVVRDDGSPAVVKALKPFDDVADELRGEHFLAWRRGEGAVRLLGRDGHSMLLEYAGETLLTQVLDEQGDNAATAIAAELMTKLFSPSQHPYPPELQPLTERYTSLFRKAATDRGAGHASIYVEAAAIAERLLDNPHDIRPLHGDLHHDNILHGPRGWLVIDPKGVLGNPGFDAANMFYNPLDRDDLCLDPERIAHMAEVFAKTLGESPAAILDHAIAYGCLSAAWHHEDDNAVEENRELSIAKAIRAMRANF | not soluble
16 | MGHHHHHHSHGLPLWVSERILQQINQLTHYEPVIGIMGKTGAGKSSLCNALFAGEVSPVSDVAACTRDPLRFRLQIGEHFMTIVDLPGVGESGVRDTEYAALYREQLPRLDLILWLIKADDRALATDEHFYRQVIGEAYRHKMLFVISQS | not soluble
17 | MRTDPERFILDNAAIMHPPHVPELRLHLATEAHELWLKTEEELEEIGLPPPFWAFAWAGGQGLARYILDHPESVCGKRVLDFASGSGLVAIAAAKAGAAKVLAADIDPWTETAIRLNAALNGVDIGFTGLDLVGKPVDADVLLAGDVFYDRAFADLLVPWFVELTEKGMIVLVGDPGRAYLPKERLRAEATYQVPVTRALEDSDVKKTTVWRFILEHHHHHH | soluble
18 | MRKIHFTDKYLLSPYHPVTVLVAGAGGTGSQVITSLARMSVALQALGHPGLHLTAFDPDTVTEANIGRQLFSETELGLNKATALVTRVNRFFGYAWEARECRYPIITKEGDKSVPLANIIITCTDNTRSRLDLWRFLKKYREYKKNDEKAPIYWMDFGNAQTTGQVLIGNIRSKISQPASSEYLPMPRMNVITEEVSYSTIREEDSGPSCSLAEALRKQDLFINSMLAQIGCDILWCMFREGRTFYRGAYLNLDTLRVNPIPV | not soluble
19 | MAHHHHHHMMRWAVDVTGIDVAEDLEREQRKCVYKVPRAANGESWHAVDDWRANASEYNDELGKVWALTRDEVQDAIAERALTANALFCNVGRTLAGALQRQGSITIAAGCASQLRGSCGRGLQWDGLLSNTQSIVSNDFACDAVPSTREVRVFSTFLNAEGKRMTVTVNMTQPTYRGVDVVAAFLQQAVATNESLSQRYSTNPRLYKLFIADEDTGEEEMAAQLDLGAQNFSCYAVNPMPAAKLFLFPQRTALLNTTTRDVNLTVQVRPLDPQAKAVQRQCVVPADMLAESLEATICSRLPASGIIQGSLRIMHGPMELNINEYYNFGAGCGQPNCPIAERTVLSLFRFGVREVVVNGRAVEEAPTEVLRDLTEDIIIDMGVDEAVSFQQFEVICINKYGARQQRLLCVDGEHLYTMRPNASEALPKTTERTIKDIEEVRIFADKPKYMEIAYTKSSHFEEDHFECTTTYNCALLNEKIRIVRRELRKREAEEQAASVKNETAMQRFMTGIRSRWFGGALQS | not soluble
20 | MKNNADYIEMKVPAQPEYVGIIRLTLSGVASRMGYTYDEIEDLKIAVSEACTNAVQHAYKEDKNGEVSIRFGVFEDRLEVIVADEGDSFDFDQKQQDLGPYTPSHTVDQLSEGGLGLYLMETLMDEVRVQNHSGVTVAMTKYLNGERVDHDTTIKNYETN | soluble
